Values belong to the molecule of their own block, whether it stands above or below them.
Tests used:
biotinylated iC3b = experiment: SPR
[1] = target: recombinant human αI domain of αMβ2 (human, UniProt P11215); experiment: SEC
[2] = target: αM subunit of the αMβ2 headpiece (human, UniProt P11215); experiment: crystal structure
αM subunit of the αMβ2 headpiece, sequence (P11215 17-770): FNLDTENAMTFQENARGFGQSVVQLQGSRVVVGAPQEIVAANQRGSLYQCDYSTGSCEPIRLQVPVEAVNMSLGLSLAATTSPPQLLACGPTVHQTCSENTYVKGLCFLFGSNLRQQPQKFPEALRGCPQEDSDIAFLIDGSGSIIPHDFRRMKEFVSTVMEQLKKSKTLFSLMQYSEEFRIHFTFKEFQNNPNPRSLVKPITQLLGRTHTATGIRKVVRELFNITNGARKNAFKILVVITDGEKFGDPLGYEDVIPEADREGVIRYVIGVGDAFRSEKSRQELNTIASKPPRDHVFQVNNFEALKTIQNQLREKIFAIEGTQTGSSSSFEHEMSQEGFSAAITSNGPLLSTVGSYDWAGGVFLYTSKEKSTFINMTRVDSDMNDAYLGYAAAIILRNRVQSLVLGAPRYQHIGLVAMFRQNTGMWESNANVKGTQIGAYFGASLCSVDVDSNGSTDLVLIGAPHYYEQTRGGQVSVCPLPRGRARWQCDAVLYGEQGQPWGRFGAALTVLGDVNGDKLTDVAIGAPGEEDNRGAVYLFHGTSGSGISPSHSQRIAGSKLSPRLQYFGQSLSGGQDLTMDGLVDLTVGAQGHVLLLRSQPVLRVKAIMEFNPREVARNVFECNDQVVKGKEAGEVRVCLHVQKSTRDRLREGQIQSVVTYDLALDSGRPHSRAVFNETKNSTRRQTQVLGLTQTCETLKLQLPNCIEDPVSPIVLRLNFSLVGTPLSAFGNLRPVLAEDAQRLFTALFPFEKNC

recombinant human αI domain of αMβ2, sequence (P11215 148-336): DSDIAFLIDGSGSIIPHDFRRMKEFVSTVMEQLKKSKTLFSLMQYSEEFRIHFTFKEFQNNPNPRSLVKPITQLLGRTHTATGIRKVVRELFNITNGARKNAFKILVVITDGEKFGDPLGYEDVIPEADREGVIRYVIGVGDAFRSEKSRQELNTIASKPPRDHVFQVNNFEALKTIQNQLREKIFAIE

Kd (biotinylated iC3b): 30 nM
Molecule: αMβ2 headpiece (from UniProt P05107 23-482) (complex)

binding result [1]: binds
binding result [2]: binds
B1: hCD11bNb1 (VHH)
VHH: QVQLVETGGGLVQAGGSLRLSCAASGNINSFNAMGWFRQAPGKQRELVAAITFGGRTNYADSVKGRFTISRDNTKGSVYLQMNSLKPEDTAVYYCAASENNLLTGVWHYWGRGTQVTVSS

From paper doi:10.1101/2021.07.07.451531 (bioRxiv, 2021)
